# Measurements: patent publication US20170101474A1 (FORMUREX, published 2017)
# Where no end group is shown, it is not given here.
# B1: HER2-PEP21 (peptide)
# peptide: PGNDTGLSRAPENSGFTYQ
# modifications: not fully specified
# notes: Designed pertuzumab mimic peptide; Unlabelled in SPR; FITC-labelled in cell assays
# B2: Pep22 (peptide)
# peptide: WSGENGPGTFYDYEA
# notes: also called EGFR-PEP22; No. 22
# B3: Pep25 (peptide)
# peptide: SGEWAYDGYEPNFG
# modifications: also: FITC label in cell assays, position not given here
# notes: Scrambled negative control; Unlabelled in SPR; FITC-conjugated in the cell assays; also called scrambled peptide; scrambled antibody mimic
# B4: Pep11-auristatin E PDC (peptide)
# peptide: WSGENGPGFYDYEA
# modifications: also: auristatin E (as 5-benzoylpentanoic ester) joined through a maleimidocaproyl hydrazone linker to a free thiol of the peptide, thiol position not given here
# B5: HER2-PEP7 (peptide)
# peptide: VGYDTGLRAPNSVGSTKQ
# modifications: not fully specified
# notes: as for B1
# B6: Pep6 (peptide)
# peptide: WSGENGPGYFDYEA
# notes: Designed cetuximab mimic peptide for EGFR, made by synthesis; also called No. 6
# B7: Pep24 (peptide)
# peptide: AEYDFYGPGNEGSW
# notes: also called No. 24
# B8: HER2-PEP22 (peptide)
# peptide: TSPQGYPNDAGFLGRESTN
# modifications: not fully specified
# notes: Unlabelled in SPR; FITC-labelled in cell assays; also called control peptide; FITC-HER2-PEP22
# B9: Pep11 (peptide)
# peptide: WSGENGPGFYDYEA
# modifications: not fully specified
# notes: Designed cetuximab mimic peptide for EGFR; Unlabelled in SPR; also called EGFR-PEP11; FITC-Pep11
# How the values were obtained:
# [1] = target: T1, HER2 recombinant human protein (human, UniProt P04626 23-652, limits assumed); assay: SPR, HER2 immobilized, peptide as analyte, 1:1 model
# T1 construct: Covalently attached to a carboxymethylated dextran SPR chip by EDC/NHS; also called HER2 protein; human epidermal growth factor receptor 2
# Description: Then, the chip was blocked by passing EA for 8 minutes at a rate of 10 μL/min. […] Triplicate determinations were done at each concentration. The bound surface was regenerated by sequential injections of 10 mM glycine in PBST (pH 2.5).
# The sensorgrams from SPR were globally treated using Scrubber 2® software where all traces were zeroed, cropped, aligned, and referenced. Kinetic constants ka and kd were determined by global fitting analyses of the titration curves using the 1:1 Lagmurian interaction model taking into account the mass transport. The equilibrium dissociation constant (KD) was calculated from the kd/ka ratio.
# Both kinetic constants ka and kd were determined by global fitting analyses of the titration curves using the 1:1 Lagmurian interaction model in software Scrubber.
# Bovine serum albumin = target: T2, Bovine serum albumin (bovine, UniProt P02769 25-607); assay: SPR, BSA immobilized, peptide as analyte
# T2 construct: Immobilized control protein in SPR; also called BSA
# T2 sequence (P02769 25-607 limits assumed): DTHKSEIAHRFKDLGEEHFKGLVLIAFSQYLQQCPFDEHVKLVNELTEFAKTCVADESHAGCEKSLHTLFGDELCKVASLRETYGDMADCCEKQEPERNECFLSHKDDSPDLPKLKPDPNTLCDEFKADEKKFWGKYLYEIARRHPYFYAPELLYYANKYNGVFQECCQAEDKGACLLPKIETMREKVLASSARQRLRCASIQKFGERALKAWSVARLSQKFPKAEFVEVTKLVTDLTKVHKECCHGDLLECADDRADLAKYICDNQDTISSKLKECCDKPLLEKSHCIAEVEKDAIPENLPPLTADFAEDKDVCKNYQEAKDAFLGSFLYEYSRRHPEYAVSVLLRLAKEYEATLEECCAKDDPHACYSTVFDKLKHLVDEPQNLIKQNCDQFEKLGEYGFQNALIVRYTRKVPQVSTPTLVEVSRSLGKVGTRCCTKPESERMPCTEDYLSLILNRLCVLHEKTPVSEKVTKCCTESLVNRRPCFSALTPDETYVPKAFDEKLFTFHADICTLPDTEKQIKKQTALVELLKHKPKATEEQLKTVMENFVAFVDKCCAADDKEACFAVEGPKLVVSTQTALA
# Recombinant human EGFR [2] = target: T3, Recombinant human EGFR (human, UniProt P00533 25-645, limits assumed); assay: SPR, EGFR immobilized, peptide as analyte, 1:1 model
# T3 construct: Immobilized by amine coupling on a carboxymethyl dextran SPR chip; also called epidermal growth factor receptor; surface-immobilized EGFR
# Description: (§1) A carboxymethyl dextran gold sensor chip was activated by N-hydroxysuccinimide (NHS) and N-ethyl-N″-[3-(diethylamino)propyl] carbodiimide (EDC) at 25° C. using phosphate buffered saline pH 7.4 with 0.05% tween 20 as running buffer. […] Unreactive sites were blocked by flowing over the chip 1 M ethanolamine pH 8.5 at 10 μL/min for 8 minutes. […] The resulting sensograms were globally fitted using Scrubber2 software (BioLogic Software, Campbell, Australia) in a 1:1 binding model to determine the association rate (kₒₙ), dissociation rate (kd or koff), and dissociation constant KD.
# Recombinant human EGFR [3] = target: T3, Recombinant human EGFR; assay: SPR, EGFR immobilized on the chip, scrambled peptide Pep25 injected; concentrations not given
# [4] = target: T4, EGFR on A431 and MDA-MB-468 cells (UniProt P00533 25-1210, limits assumed); assay: confocal microscopy of cells incubated with FITC-labelled scrambled peptide for 30 min at 37 C
# T4 construct: whole, on cells; also called EGFR overexpressing cell lines; cells which overexpress EGFR
# Description: For binding/internalization studies, 5×10⁵ cells were seeded in cover slips in 6 well culture plates overnight. […] Cells were fixed with 4% paraformaldehyde and cover slips were mounted on slides which contain a drop of SlowFade®. Cells were then imaged with an inverted Leica. DMIRE2 fluorescence microscope (Leica Biosystems Richmond Inc., Richmond, USA) using a Yokogawa CSUX1 confocal scanner unit. […] Cells were then centrifuged at 500 g for 5 min. Supernatant was removed and cell pellets were re-suspended in FACS solution. The cell suspension was then analyzed on a Beckman Coulter flow cytometer and data were analyzed using the Cell Questpro. A total of 10000 events were collected monitoring FITC.
# [5] = target: T4, EGFR on A431 and MDA-MB-468 cells; assay: cell-based or functional assay
# [6] = target: HER2 on MDA-MB-361 and ZR-75-1 cells (human) (UniProt P04626); assay: flow cytometry, FITC-labelled peptide 10 µM, ZR-75-1 cells (blank cells 3.2±0.4)
# [7] = target: HER2 on MDA-MB-361 and ZR-75-1 cells (human) (UniProt P04626); assay: flow cytometry, FITC-labelled peptide 10 µM, MDA-MB-361 cells (blank cells 4.5±0.2)
# Recombinant human EGFR [8] = target: T3, Recombinant human EGFR; assay: SPR, EGFR immobilized
# Description: as §1
Binder,Kd [1] [nM],binding result (Bovine serum albumin),Kd (Recombinant human EGFR [2]) [nM],koff (Recombinant human EGFR [2]) [s⁻¹],kon (Recombinant human EGFR [2]) [M⁻¹ s⁻¹],further results
B1,56,–,–,–,–,–
B2,–,no binding,595,0.0259,43500,–
B3,–,–,–,–,–,binding result (Recombinant human EGFR [3]): no binding; binding result [4]: no binding
B4,–,–,–,–,–,"IC50 of cytotoxicity (sulforhodamine B assay, 72 h), A431 cells [5]: 0.0026 nM; IC50 of cytotoxicity (sulforhodamine B assay, 72 h), MDA-MB-468 cells [5]: 0.0013 nM"
B5,93,–,–,–,–,–
B6,–,no binding,4800,0.00581,1210,–
B7,–,no binding,7200,0.103,14300,–
B8,138000,–,–,–,–,koff [1]: 0.0181 s⁻¹; kon [1]: 131 M⁻¹ s⁻¹; MFI [6]: 19.6 MFI; MFI [7]: 22.1 MFI
B9,–,no binding,252,0.0252,100000,"fold KD relative to cetuximab (Recombinant human EGFR [8]): ~50 fold; IC50 of cytotoxicity (sulforhodamine B assay, 72 h), A431 cells [5]: 388 nM; IC50 of cytotoxicity (sulforhodamine B assay, 72 h), MDA-MB-468 cells [5]: 420 nM"
